Experimental findings from the supplement of paper PMC10567573 are described below.

First the molecules themselves.
B1: DYRK1B (parent)
chain: YQGPGTRRLQEVLGVQTGGPGGRR
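Also: lentivirally expressed fusions sorted by FACS into six bins by GFP to DsRed ratio, PSI derived from sequencing read proportions per bin multiplied by bin number.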

In the series the parent is B1. The series can be described thus: protein stability index of a GFP-peptide fusion (GPS, HEK-293T) (PSI 1-6); higher = more stable. The following applies: c terminus: a fixed tail appended.
As for YQGEGTRRLQEVLGVQTGGPGGRR [P4E], the protein stability index was 3.3.

For the variant YQGWGTRRLQEVLGVQTGGPGGRR [P4W], the protein stability index was 1.76.

With YQGHGTRRLQEVLGVQTGGPGGRR [P4H], the protein stability index is 2.79.

Regarding YQGLGTRRLQEVLGVQTGGPGGRR [P4L], the protein stability index was 2.39.

YQGQGTRRLQEVLGVQTGGPGGRR [P4Q]: the protein stability index came to 2.88.

As to YQGTGTRRLQEVLGVQTGGPGGRR [P4T], the protein stability index is 2.79.

With VQGPGTRRLQEVLGVQTGGPGGRR [Y1V], the protein stability index stood at 4.28.

DQGPGTRRLQEVLGVQTGGPGGRR [Y1D]: the protein stability index amounted to 4.91.

HQGPGTRRLQEVLGVQTGGPGGRR [Y1H]: the protein stability index was determined as 4.78.

EQGPGTRRLQEVLGVQTGGPGGRR [Y1E]: the protein stability index was 4.83.

With RQGPGTRRLQEVLGVQTGGPGGRR [Y1R], the protein stability index was 4.22.

In the case of NQGPGTRRLQEVLGVQTGGPGGRR [Y1N], the protein stability index is 4.63.

YQGPGTRRLQEVLGVQTVGPGGRR [G18V]: the protein stability index stood at 3.06.

As for YQGPGTRRLQEVLGVQTTGPGGRR [G18T], the protein stability index was determined as 3.51.

With YQGPGTRRLQEVLGVQTCGPGGRR [G18C], the protein stability index amounted to 3.07.

For YQGPGTRRLQEVLGVQTYGPGGRR [G18Y], the protein stability index was found to be 2.94.

YQGPGTRRLQEVLMVQTGGPGGRR [G14M]: the protein stability index is 3.25.

Take YQGPGTRRLQEVLAVQTGGPGGRR [G14A]: the protein stability index stood at 2.92.

As for YQGPGTRRLQEVLWVQTGGPGGRR [G14W], the protein stability index is 2.11.

In the case of YQGPGTRRLQEVLQVQTGGPGGRR [G14Q], the protein stability index was 3.72.

For YQGPGTRRLQEVLKVQTGGPGGRR [G14K], the protein stability index is 2.9.

For YQGPGTRRLQEVLSVQTGGPGGRR [G14S], the protein stability index was determined as 3.14.

YQGPGTRDLQEVLGVQTGGPGGRR [R8D]: the protein stability index was found to be 3.55.

For the variant YQGPGTRKLQEVLGVQTGGPGGRR [R8K], the protein stability index was 2.9.

YQGPGTRILQEVLGVQTGGPGGRR [R8I]: the protein stability index turned out to be 2.75.

As for YQGPGTRWLQEVLGVQTGGPGGRR [R8W], the protein stability index is 3.27.

With YQGPGTRELQEVLGVQTGGPGGRR [R8E], the protein stability index came to 4.51.

Consider YQGPGTRSLQEVLGVQTGGPGGRR [R8S], for which the protein stability index was 3.73.

As for YQGPGTRLLQEVLGVQTGGPGGRR [R8L], the protein stability index was found to be 1.91.

Turning to YQGPGTRRLQEVEGVQTGGPGGRR [L13E], the protein stability index was found to be 4.44.

On to YQGPGTRRLQEVKGVQTGGPGGRR [L13K], for which the protein stability index was 3.79.

YQGPGTRRLQEVVGVQTGGPGGRR [L13V]: the protein stability index came to 3.68.

For YQGPGTRRLQEVWGVQTGGPGGRR [L13W], the protein stability index came out at 1.67.

Consider YQGPGTRRLQEVIGVQTGGPGGRR [L13I], for which the protein stability index was 3.47.

On to YQGPGTRRLQEVYGVQTGGPGGRR [L13Y], for which the protein stability index was determined as 3.63.

In the case of YQGPGTRRLQEVLGVQTGGPTGRR [G21T], the protein stability index was found to be 2.98.

On to YQGPGTRRLQEVLGVQTGGPRGRR [G21R], for which the protein stability index worked out at 3.32.

As to YQGPGTRRLQEVLGVQTGGPLGRR [G21L], the protein stability index turned out to be 3.18.

For YQGPGTRRLQEVLGVQTGGPCGRR [G21C], the protein stability index was 2.72.

Turning to YQGPGTRRLQEVLGVQTGGPQGRR [G21Q], the protein stability index came to 3.4.

For the variant YQGPGTRRLQEVLGVQTGGPNGRR [G21N], the protein stability index came out at 3.04.

In the case of YQGPGTRRLQEVLGVQTGGPWGRR [G21W], the protein stability index is 2.17.

Consider YQGPGTRRLQEVLGVQTGGPPGRR [G21P], for which the protein stability index stood at 3.17.

Consider YQGPGTRRLQEVLGVQTGGPGGRK [R24K], for which the protein stability index came to 3.12.

On to YQGPGTRRLQEVLGVQTGGPGGRQ [R24Q], for which the protein stability index was found to be 3.06.

As for YQGPGTRRLQEVLGVQTGGPGGRE [R24E], the protein stability index came to 3.67.

As for YQGPGTRRLQEVLGVQTGGPGGRN [R24N], the protein stability index was 3.43.

YQGPGTRRLQEVLGVQTGGPGRRR [G22R]: the protein stability index is 2.7.

YQGPGTRRLQEVLGVQTGGPGKRR [G22K]: the protein stability index stood at 2.51.

As to YQGPGTRRLQEVLGVQTGGPGARR [G22A], the protein stability index was determined as 3.13.

Consider YQGPGTRRLQEVLGVQTGGPGSRR [G22S], for which the protein stability index came to 3.05.

For YQGPGTRRLQEVLGVQTGGPGPRR [G22P], the protein stability index is 3.48.

Regarding YQGPGTRRLQEALGVQTGGPGGRR [V12A], the protein stability index is 2.84.

For the variant YQGPGTRRLQERLGVQTGGPGGRR [V12R], the protein stability index was 2.91.

As to YQGPGTRRLQEPLGVQTGGPGGRR [V12P], the protein stability index is 3.69.

With YQGPGTRRLQEILGVQTGGPGGRR [V12I], the protein stability index was 3.58.

Consider YQGPGTRRLQEHLGVQTGGPGGRR [V12H], for which the protein stability index was 3.66.

For the variant YQGPGTRRLQEVLGVITGGPGGRR [Q16I], the protein stability index is 1.74.

Consider YQGPGTRRLQEVLGVRTGGPGGRR [Q16R], for which the protein stability index was found to be 3.09.

Take YQGPGTRRLQEVLGVMTGGPGGRR [Q16M]: the protein stability index is 2.98.

For YQGPGTRRLQEVLGVYTGGPGGRR [Q16Y], the protein stability index turned out to be 3.19.

Turning to YQGPGTRRLQEVLGVPTGGPGGRR [Q16P], the protein stability index was determined as 2.77.

As for YQGPGTRRLQEVLGVHTGGPGGRR [Q16H], the protein stability index turned out to be 3.75.

YQGPGTRRLQEVLGVNTGGPGGRR [Q16N]: the protein stability index is 3.32.

Take YQGPGTRRLQMVLGVQTGGPGGRR [E11M]: the protein stability index was found to be 2.81.

In the case of YQGPGTRRLQHVLGVQTGGPGGRR [E11H], the protein stability index is 2.43.

For the variant YQGPGTRRLQGVLGVQTGGPGGRR [E11G], the protein stability index stood at 3.78.

As to YQGPGTRRLQIVLGVQTGGPGGRR [E11I], the protein stability index was determined as 1.97.

On to YQGPGTRRLQSVLGVQTGGPGGRR [E11S], for which the protein stability index was determined as 3.

With YQGPGTRRLQPVLGVQTGGPGGRR [E11P], the protein stability index turned out to be 2.73.

Consider YQGPGTRRLQWVLGVQTGGPGGRR [E11W], for which the protein stability index is 1.55.

For YQGPVTRRLQEVLGVQTGGPGGRR [G5V], the protein stability index amounted to 3.4.

For the variant YQGPATRRLQEVLGVQTGGPGGRR [G5A], the protein stability index turned out to be 3.44.

Consider YQGPYTRRLQEVLGVQTGGPGGRR [G5Y], for which the protein stability index turned out to be 2.34.

Consider YQGPQTRRLQEVLGVQTGGPGGRR [G5Q], for which the protein stability index came to 4.42.

Regarding YQGPTTRRLQEVLGVQTGGPGGRR [G5T], the protein stability index turned out to be 3.22.

Regarding YQGPGTRRLQEVLGVQTGAPGGRR [G19A], the protein stability index came to 3.34.

Turning to YQGPGTRRLQEVLGVQTGVPGGRR [G19V], the protein stability index amounted to 3.19.

As to YQGPGTRRLQEVLGVQTGMPGGRR [G19M], the protein stability index is 2.75.

With YQGPGTRRLQEVLGVQTGWPGGRR [G19W], the protein stability index stood at 2.14.

As to YQGPGTRRLQEVLGVQTGDPGGRR [G19D], the protein stability index worked out at 3.58.

As for YQGPGTRRLQEVLGVQTGEPGGRR [G19E], the protein stability index turned out to be 3.63.

With YQGPGTYRLQEVLGVQTGGPGGRR [R7Y], the protein stability index is 3.1.

Consider YQGPGTFRLQEVLGVQTGGPGGRR [R7F], for which the protein stability index was 2.04.

Consider YQGPGTCRLQEVLGVQTGGPGGRR [R7C], for which the protein stability index was 1.51.

With YQGPGTNRLQEVLGVQTGGPGGRR [R7N], the protein stability index was 2.65.

With YQGPGTRRLQEVLGVQTGGQGGRR [P20Q], the protein stability index worked out at 3.16.

With YQGPGTRRLQEVLGVQTGGKGGRR [P20K], the protein stability index was found to be 3.83.

As to YQGPGTRRLQEVLGVQTGGGGGRR [P20G], the protein stability index stood at 3.15.

Turning to YQGPGTRRLQEVLGVQTGGLGGRR [P20L], the protein stability index came to 2.82.

Turning to YQGPGTRRLQEVLGVQTGGTGGRR [P20T], the protein stability index is 3.32.

Turning to YQGPGTRRLQEVLGVQTGGSGGRR [P20S], the protein stability index amounted to 3.28.

Consider YQGPGTRRLQEVLGVQTGGCGGRR [P20C], for which the protein stability index worked out at 3.49.

As for YQGPGTRRLEEVLGVQTGGPGGRR [Q10E], the protein stability index was 3.82.
